Test system: Human umbilical vein endothelial cells (HUVEC)
Test: Endothelial cell migration assay (transwell) on ECM substrates
Format: cell-based
Conditions: inventors' data, no details given
Protocol: Human umbilical vein endothelial cells (HUVEC) were grown in Endothelial Growth Medium (containing 2% fetal bovine serum, bFGF and VEGF) (Clonetics, San Diego, Calif.). To render HUVECs quiescent for Rac and/or Rho assays, monolayers of endothelial cells were incubated for 18 hrs in Endothelial Basal Medium supplemented with 0.1% serum (Clonetics). Cell migration and adhesion assays on ECM substrates were performed as previously described in Kim et al. (S. Kim et al., Amer. J. Biol. Chem., 275:33920-33928 (2000); and S. Kim et al., Amer. J. Path., 156:1345-1362 (2000)).
Migration assays were performed essentially as described (Kim, et. al., 2000). […] HUVECS (25,000) were added to the upper chamber of inserts in migration buffer (Hepes buffered M199 medium containing 1% BSA, 2 mM MgCl2, 2 mM CaCl2 and 0.2 mM MnCl2) containing 25 μg/ml of various antibodies. In some experiments, 250 μM dibutyryl cAMP was placed in the upper and lower chambers of the transwell. Cells were allowed to migrate from the upper to the lower chamber for four hours at 37° C. The number of cells which had migrated were counted in three representative high power (200×) fields per insert. The data are presented as number of cells migrating+/−standard error of the mean. […] In this case, migrated transfected cells were identified by fluorescent microscopy and counted.

B1: Csk: enzyme that phosphorylates Src on Tyr 527 and inhibits its activity (protein, UniProt P41240 2-450, looked up)
Tyrosine-protein kinase CSK: SAIQAAWPSGTECIAKYNFHGTAEQDLPFCKGDVLTIVAVTKDPNWYKAKNKVGREGIIPANYVQKREGVKAGTKLSLMPWFHGKITREQAERLLYPPETGLFLVRESTNYPGDYTLCVSCDGKVEHYRIMYHASKLSIDEEVYFENLMQLVEHYTSDADGLCTRLIKPKVMEGTVAAQDEFYRSGWALNMKELKLLQTIGKGEFGDVMLGDYRGNKVAVKCIKNDATAQAFLAEASVMTQLRHSNLVQLLGVIVEEKGGLYIVTEYMAKGSLVDYLRSRGRSVLGGDCLLKFSLDVCEAMEYLEGNNFVHRDLAARNVLVSEDNVAKVSDFGLTKEASSTQDTGKLPVKWTAPEALREKKFSTKSDVWSFGILLWEIYSFGRVPYPRIPLKDVVPRVEKGYKMDAPDGCPPAVYEVMKNCWHLDAAMRPSFLQLREQLEHIKTHELHL
**Q.** B1 was tested. Which cell migration did it give?
**A.** The cell migration was “causes inhibition of cell migration”.
